Results published in publication PMC10516637, “FANCD2 and RAD51 recombinase directly inhibit DNA2 nuclease at stalled replication forks and FANCD2 acts as a novel RAD51 mediator in strand exchange to promote genome stability” (Nucleic Acids Research, 2023).

Molecular target: T1, His-tagged human FANCD2 purified from E. coli (human, UniProt Q9BXW9 1-1451)
T1 construct: human FANCD2; non-ubiquitinylated single band on a gel; also called FANCD2-His; hFANCD2; source: E. coli BL21(DE3) CodonPlus, purified (Ni-NTA, Q Sepharose, Superdex 200)
Experiment: pull-down; FLAG-DNA2 purified on M2 FLAG beads, incubated with purified FANCD2 (1 ug/ml) at 4 C for 1 h; washed with PBS 5 times; western blot; empty M2 beads as control
Details: both partners purified

T1 sequence (Q9BXW9 whole entry): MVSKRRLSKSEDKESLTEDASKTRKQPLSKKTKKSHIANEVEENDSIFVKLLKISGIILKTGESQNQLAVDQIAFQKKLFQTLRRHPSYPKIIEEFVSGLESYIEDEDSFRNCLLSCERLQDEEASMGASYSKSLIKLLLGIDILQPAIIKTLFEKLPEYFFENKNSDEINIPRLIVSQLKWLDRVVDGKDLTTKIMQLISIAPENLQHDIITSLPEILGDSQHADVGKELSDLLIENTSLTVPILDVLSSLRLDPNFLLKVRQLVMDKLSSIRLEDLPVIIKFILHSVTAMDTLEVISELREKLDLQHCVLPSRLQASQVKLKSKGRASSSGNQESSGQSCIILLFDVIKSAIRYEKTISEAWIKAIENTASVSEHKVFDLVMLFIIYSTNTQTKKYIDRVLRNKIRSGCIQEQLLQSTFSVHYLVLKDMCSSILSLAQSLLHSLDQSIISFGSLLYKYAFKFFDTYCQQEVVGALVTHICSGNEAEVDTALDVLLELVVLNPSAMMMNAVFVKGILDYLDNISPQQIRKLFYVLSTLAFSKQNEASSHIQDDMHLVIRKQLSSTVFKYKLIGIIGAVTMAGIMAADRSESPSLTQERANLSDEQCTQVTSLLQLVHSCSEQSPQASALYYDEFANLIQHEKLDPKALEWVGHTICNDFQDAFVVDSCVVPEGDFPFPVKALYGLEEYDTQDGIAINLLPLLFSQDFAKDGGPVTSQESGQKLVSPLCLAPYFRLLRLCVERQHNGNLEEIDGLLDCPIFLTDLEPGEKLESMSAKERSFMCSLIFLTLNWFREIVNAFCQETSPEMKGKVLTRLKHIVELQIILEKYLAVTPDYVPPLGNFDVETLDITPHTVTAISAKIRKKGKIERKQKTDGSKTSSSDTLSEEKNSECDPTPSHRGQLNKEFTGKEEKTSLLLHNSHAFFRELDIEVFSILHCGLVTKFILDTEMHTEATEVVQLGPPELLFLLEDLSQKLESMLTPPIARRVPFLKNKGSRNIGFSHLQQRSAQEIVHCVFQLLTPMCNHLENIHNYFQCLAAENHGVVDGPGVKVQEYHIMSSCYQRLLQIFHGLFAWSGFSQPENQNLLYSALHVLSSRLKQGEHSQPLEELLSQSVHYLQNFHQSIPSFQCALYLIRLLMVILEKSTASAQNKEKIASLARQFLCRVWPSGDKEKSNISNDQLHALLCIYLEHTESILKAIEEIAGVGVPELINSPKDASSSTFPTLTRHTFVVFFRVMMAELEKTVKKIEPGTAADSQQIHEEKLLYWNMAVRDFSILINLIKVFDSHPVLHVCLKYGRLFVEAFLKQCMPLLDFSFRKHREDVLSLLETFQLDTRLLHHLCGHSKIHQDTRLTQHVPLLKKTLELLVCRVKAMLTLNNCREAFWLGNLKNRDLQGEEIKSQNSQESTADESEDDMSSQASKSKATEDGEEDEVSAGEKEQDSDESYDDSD

B1: FLAG-tagged human DNA2 from 293T cells (enzyme, UniProt P51530 1-1060, looked up)
chain: MEQLNELELLMEKSFWEEAELPAELFQKKVVASFPRTVLSTGMDNRYLVLAVNTVQNKEGNCEKRLVITASQSLENKELCILRNDWCSVPVEPGDIIHLEGDCTSDTWIIDKDFGYLILYPDMLISGTSIASSIRCMRRAVLSETFRSSDPATRQMLIGTVLHEVFQKAINNSFAPEKLQELAFQTIQEIRHLKEMYRLNLSQDEIKQEVEDYLPSFCKWAGDFMHKNTSTDFPQMQLSLPSDNSKDNSTCNIEVVKPMDIEESIWSPRFGLKGKIDVTVGVKIHRGYKTKYKIMPLELKTGKESNSIEHRSQVVLYTLLSQERRADPEAGLLLYLKTGQMYPVPANHLDKRELLKLRNQMAFSLFHRISKSATRQKTQLASLPQIIEEEKTCKYCSQIGNCALYSRAVEQQMDCSSVPIVMLPKIEEETQHLKQTHLEYFSLWCLMLTLESQSKDNKKNHQNIWLMPASEMEKSGSCIGNLIRMEHVKIVCDGQYLHNFQCKHGAIPVTNLMAGDRVIVSGEERSLFALSRGYVKEINMTTVTCLLDRNLSVLPESTLFRLDQEEKNCDIDTPLGNLSKLMENTFVSKKLRDLIIDFREPQFISYLSSVLPHDAKDTVACILKGLNKPQRQAMKKVLLSKDYTLIVGMPGTGKTTTICTLVRILYACGFSVLLTSYTHSAVDNILLKLAKFKIGFLRLGQIQKVHPAIQQFTEQEICRSKSIKSLALLEELYNSQLIVATTCMGINHPIFSRKIFDFCIVDEASQISQPICLGPLFFSRRFVLVGDHQQLPPLVLNREARALGMSESLFKRLEQNKSAVVQLTVQYRMNSKIMSLSNKLTYEGKLECGSDKVANAVINLRHFKDVKLELEFYADYSDNPWLMGVFEPNNPVCFLNTDKVPAPEQVEKGGVSNVTEAKLIVFLTSIFVKAGCSPSDIGIIAPYRQQLKIINDLLARSIGMVEVNTVDKYQGRDKSIVLVSFVRSNKDGTVGELLKDWRRLNVAITRAKHKLILLGCVPSLNCYPPLEKLLNHLNSEKLIIDLPSREHESLCHILGDFQRE
notes: human DNA2 helicase/nuclease; also called FLAG-DNA2; hDNA2; source: 293T, over-expressed, purified (M2 FLAG beads, 3x FLAG peptide elution); HEK-293T, over-expressed, in lysate
**Q.** Does B1 bind?
**A.** binds
